These results are taken from patent US20200261595A1.

The assay concerns the target insulin receptor of isolated rat adipocytes (rat) (UniProt P15127). Kind of assay: cell-based or functional assay.

Chain of insulin receptor of isolated rat adipocytes (rat) (P15127 27-1383): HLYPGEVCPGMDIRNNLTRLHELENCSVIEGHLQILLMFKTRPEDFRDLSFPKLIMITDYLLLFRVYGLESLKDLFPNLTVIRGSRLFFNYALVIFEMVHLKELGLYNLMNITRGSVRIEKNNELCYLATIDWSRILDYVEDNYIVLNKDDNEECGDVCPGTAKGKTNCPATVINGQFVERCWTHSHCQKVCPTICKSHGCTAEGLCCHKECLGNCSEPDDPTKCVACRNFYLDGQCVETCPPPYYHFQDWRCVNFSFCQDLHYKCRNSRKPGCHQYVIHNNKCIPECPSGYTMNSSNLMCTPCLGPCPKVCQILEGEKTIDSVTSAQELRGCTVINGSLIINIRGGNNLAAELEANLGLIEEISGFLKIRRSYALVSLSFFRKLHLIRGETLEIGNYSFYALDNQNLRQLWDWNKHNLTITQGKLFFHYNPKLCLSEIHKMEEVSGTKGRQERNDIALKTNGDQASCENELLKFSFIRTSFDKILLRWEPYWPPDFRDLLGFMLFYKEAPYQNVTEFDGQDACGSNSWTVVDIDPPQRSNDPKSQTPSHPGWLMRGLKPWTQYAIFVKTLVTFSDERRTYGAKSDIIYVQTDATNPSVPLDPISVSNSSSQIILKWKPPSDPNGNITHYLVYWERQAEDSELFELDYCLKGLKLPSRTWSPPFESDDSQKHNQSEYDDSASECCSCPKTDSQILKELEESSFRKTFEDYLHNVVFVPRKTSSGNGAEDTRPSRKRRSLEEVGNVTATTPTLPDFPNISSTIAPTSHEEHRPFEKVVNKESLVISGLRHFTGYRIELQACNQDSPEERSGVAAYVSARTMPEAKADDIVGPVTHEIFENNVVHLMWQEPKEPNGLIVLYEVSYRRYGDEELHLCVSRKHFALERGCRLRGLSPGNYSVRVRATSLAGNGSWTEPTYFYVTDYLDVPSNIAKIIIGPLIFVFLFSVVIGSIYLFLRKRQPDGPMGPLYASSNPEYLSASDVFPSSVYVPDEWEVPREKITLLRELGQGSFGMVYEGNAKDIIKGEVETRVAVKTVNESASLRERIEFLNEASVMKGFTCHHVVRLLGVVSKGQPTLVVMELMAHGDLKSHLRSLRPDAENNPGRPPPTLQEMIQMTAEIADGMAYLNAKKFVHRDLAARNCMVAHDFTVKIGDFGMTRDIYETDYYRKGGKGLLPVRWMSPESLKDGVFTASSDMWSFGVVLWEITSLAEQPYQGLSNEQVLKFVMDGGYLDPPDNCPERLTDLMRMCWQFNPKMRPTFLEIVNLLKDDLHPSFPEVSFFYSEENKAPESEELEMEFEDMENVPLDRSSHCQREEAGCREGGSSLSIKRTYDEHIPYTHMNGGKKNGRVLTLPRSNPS

Regarding “(A14E, A21G, A22(GQEP)19, 98K^, A99P, B25H, B29R, desB30 human insulin)/(226A, 227G, 228P, 234A, 235K, des447 hIgG4-Fc(228-447)) 3,5-bis[(2-acetyl)amino]benzoyl conjugate (from UniProt P01861 109-325)”, the Lipogenesis in rat adipocytes [Potency (%)] Mean Value (% of human insulin) is 5.44.
“A14E, B(-78K^), B(-77P), B(-1)(GQAP)19, B25H, B29R, desB30 human insulin/(227A, 234A, 235K, 297E, 315Q, 384Q, des447 hIgG4-Fc(228-447)) 4-[bis[2-[(2-acetyl)amino]ethyl]amino]-4-oxo-butanoyl conjugate (from UniProt P01861 108-325)”: the Lipogenesis in rat adipocytes [Potency (%)] Mean Value (% of human insulin) turned out to be 0.87.
